Our source for the Kd values is PMC10470860.

Series [1] relates to RFTS-containing DNMT1 A554V (human). Put plainly: fluorescence polarization. The conditions noted are these: 5-methylcytosine on one strand (hemimethylated), 100 nM DNA, 28 °C, triplicate, hyperbolic fit, buffer, salt and pH not given (as in ref [25]).
The subject of series [2] is RFTS-containing DNMT1 wild-type (human). Put plainly: fluorescence polarization. The conditions noted are these: 5-methylcytosine on one strand (hemimethylated), 100 nM DNA, 28 °C, triplicate, hyperbolic fit, buffer, salt and pH not given (as in ref [25]).

For the substance 18 bp hemimethylated duplex DNA, the Kd in series [1] is 0.55 µM; in series [2] it was 4.6 µM.
